Measured values taken from patent US20100240040A1, “METHOD FOR SCREENING FOR SELECTIVE MODULATOR OF THE NF-KB PATHWAY ACTIVATION” (INSTITUT PASTEUR, priority 2007, published 2010).

What was measured:
[1] = target: Biot-CC2-LZ (murine); test: HTRF, 50 nM each, in the presence of GST-Ub4 (12.5 µM), which induces the CC2-LZ dimer
[2] = target: Biot-CC2-LZ (murine); test: HTRF, 50 nM each, in the presence of Poly-Ub (12.5 µM)
[3] = target: Biot-CC2-LZ (murine); test: HTRF, 50 nM each, streptavidin-EuK 2 nM, anti-His-XL665 7 nM
[4] = target: Biot-CC2-LZ (murine); test: HTRF, 50 nM each, in the presence of Mono-Ub (1 µM)

B1: His-CC2-LZ (protein)
chain: MGSHHHHHHSSGLVPRGSHMASLEDLRQQLQQAEEALVAKQELIDKLKEEAEQHKIVMETVPVLKAQADIYKADFQAERHAREKLVEKKEYLQEQLEQLQREFNKL
For B1, the FRET (ΔF %) [1] was 373 ΔF %, the FRET (ΔF %) [2] was < 0 ΔF % and the FRET (ΔF %) [3] was < 0 ΔF %. For the same binder, the FRET (ΔF %) [4] was < 0 ΔF %.
